The results in this text go back to article PMC2745200 (Biochimie, 2009).

As a reminder, the stoichiometry N is the number of molecules, sites or subunits per partner or assembly.

This data set concerns the molecule itself. In words: SEC. On the technique in general: SEC sorts molecules by how far they enter the pores of the column.

B1: human ω-amidase/Nit2 (nitrilase-like protein 2) (enzyme, UniProt Q9NQR4 1-276, looked up)
chain: MTSFRLALIQLQISSIKSDNVTRACSFIREAATQGAKIVSLPECFNSPYGAKYFPEYAEKIPGESTQKLSEVAKECSIYLIGGSIPEEDAGKLYNTCAVFGPDGTLLAKYRKIHLFDIDVPGKITFQESKTLSPGDSFSTFDTPYCRVGLGICYDMRFAELAQIYAQRGCQLLVYPGAFNLTTGPAHWELLQRSRAVDNQVYVATASPARDDKASYVAWGHSTVVNPWGEVLAKAGTEEAIVYSDIDLKKLAEIRQQIPVFRQKRSDLYAVEMKKP
In the case of B1, the “stoichiometry N” value was 2.
